Test results taken from patent publication US20120184718A1.

Target: human FAS polypeptide (human) (UniProt P25445)
Experiment: cell-based or functional assay

UniProt P25445, sequence (P25445 26-335 limits assumed): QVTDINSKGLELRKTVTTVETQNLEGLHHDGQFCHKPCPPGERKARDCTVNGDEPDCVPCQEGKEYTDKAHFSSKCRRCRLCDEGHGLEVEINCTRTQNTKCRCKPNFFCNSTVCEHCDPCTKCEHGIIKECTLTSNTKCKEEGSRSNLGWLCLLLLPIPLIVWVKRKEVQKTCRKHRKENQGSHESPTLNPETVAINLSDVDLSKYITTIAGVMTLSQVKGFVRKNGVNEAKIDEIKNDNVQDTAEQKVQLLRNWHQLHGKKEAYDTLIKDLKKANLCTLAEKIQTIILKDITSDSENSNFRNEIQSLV

apoptosis (DNA fragmentation), U87-MG cells, 24 hours, cross-linked antibody (fold of cross-linked ApomAb): 2
Substance: HFE7A IgG (antibody)
